Sequences and labels used below:
B1: OR4K15 (parent)
chain: GUUAACGGUCAUAGGCCAUGGAAACUAGGAGCACCAUUUCGCUGCCAGUGAAGAAAUGAACAAAGAAAAUCUGGGCCAGGCAGGCAUCAAAAGAAAUAGUCUUGCGCUCAACCAGAAAGUCUGUAAUCAUUUUAAGGGUA

The results in this text go back to the RNAGym collection of RNA variant scans (doi:10.7554/elife.90254).

In the series the parent is B1. The series can be described thus: self-cleavage, relative activity (ratio to wild type); higher = more cleavage; in vitro, sequencing; the parent is a self-cleaving ribozyme.
With A36U U72A, the self-cleavage was determined as 0.37.
The value for A36U U72C was 0.32.
Take A36U U139A: the self-cleavage stood at 2.31.
For the variant A36G U37G, the self-cleavage is 1.45.
In the case of C34U A90G, the self-cleavage stood at 0.74.
The value for U38A U97C was 1.67; that for C34U A54G was 1.6.
For C35U U43A, the self-cleavage came out at 0.61.
On to A36C U43C, for which the self-cleavage was 1.24.
The value for A33U U131C was 1.83; that for A36G A67U was 1.85.
On to A36G A67G, for which the self-cleavage amounted to 1.7.
Regarding C35U A95G, the self-cleavage came to 1.74.
As for A36G U132C, the self-cleavage came out at 1.72.
The value for A36G U132A was 1.41; that for U38A A117U was 0.73; that for U38A A117G was 2.22.
The value for A36G G104A was 0.07.
On to A36G U122C, for which the self-cleavage worked out at 1.25.
Turning to A36G U122A, the self-cleavage was 1.66.
The value for A36G A140G was 1.31.
The value for C35U U57A was 0.59.
The value for A36U U127C was 0.93.
A36G G106A: the self-cleavage came to 0.02.
The value for A36U A98U was 2.42.
The value for A36G A56G was 1.3.
Turning to A36C A51U, the self-cleavage stood at 2.34.
The value for C35U U70C was 0.58; that for C35U U70A was 0.97; that for U37G A47G was 1.16.
U37C A54G: the self-cleavage was 1.51.
The value for A36G G79A was 0.1.
U38A A89U: the self-cleavage is 2.11.
C34U A94G: the self-cleavage is 1.55.
Take U37A U108C: the self-cleavage came to 0.
A36C A91G: the self-cleavage turned out to be 1.81.
The value for U37G U130C was 0.05; that for U38A A98G was 0.91; that for A36U A47U was 0.69.
As for A36U A47G, the self-cleavage was 1.03.
As to A36G A110C, the self-cleavage stood at 0.39.
The value for A36G A110G was 0.07; that for A36U C107G was 0.03.
The value for U38A A47U was 1.31; that for U38A A47G was 1.59.
The value for C35A A36U was 0.97; that for A36G U131A was 0.59; that for A36G U131C was 1.59.
With A36G A60G, the self-cleavage was found to be 1.28.
The value for A36U A86G was 1.03; that for U38A A78U was 0.39; that for U38A A78G was 0.26.
The value for U37G A55G was 1.07; that for A36U G48A was 1.22; that for A36G U127C was 1.34.
Take A36G U127A: the self-cleavage amounted to 1.87.
Turning to A36G A68G, the self-cleavage was 2.06.
Regarding A36G A68U, the self-cleavage was determined as 1.65.
The value for U37C U133C was 1.16.
The value for U37C U133A was 1.34; that for C34U G44A was 1.66.
The value for A36G G123A was 1.46.
As to A33U U139A, the self-cleavage was 0.95.
Turning to U37C C46U, the self-cleavage was 1.33.
As to U37G U100C, the self-cleavage is 1.67.
U37C A69G: the self-cleavage was found to be 1.17.
The value for C34U A60G was 1.29; that for C34U A110G was 0.19; that for U37G U132C was 0.78.
Turning to A36U A116U, the self-cleavage was 0.5.
The value for A36U A116G was 0.96.
The value for U37C A62G was 1.57.
The value for A36G A90C was 1.15; that for A36G A90G was 1.54; that for A36G U49A was 1.26.
Regarding A36G A54G, the self-cleavage is 0.96.
U37C A135G: the self-cleavage was 0.95.
Turning to A36U A135C, the self-cleavage amounted to 1.65.
In the case of C34A A60G, the self-cleavage stood at 1.39.
The value for C34A was 1.12; that for C34G was 1.98.
The value for C34U was 1.35.
The value for C35U A92U was 1.37.
As for C35U A111G, the self-cleavage was determined as 0.05.
As for C35U A111U, the self-cleavage came out at 0.05.
With U37A A62G, the self-cleavage worked out at 1.37.
As to A36U G123A, the self-cleavage was found to be 1.73.
U37C A63G: the self-cleavage stood at 0.79.
The value for U37C A92U was 1.61.
The value for A36U A126U was 1.63; that for A36U A126G was 0.99; that for A36U C113U was 0.02.
The value for U37C A78C was 0.64; that for U37C A78G was 0.26; that for U37C A78U was 0.32.
For the variant U37C A68U, the self-cleavage is 1.5.
A36G G65U: the self-cleavage amounted to 1.06.
The value for A36G A62G was 1.94; that for U37A A135U was 2.22; that for A36G A89U was 2.21.
Regarding A36U A89G, the self-cleavage is 1.41.
The value for U37C G74A was 0.31.
The value for A36C was 1.52.
For A36G, the self-cleavage came to 1.39.
The value for A36U was 1.38; that for U37C A110C was 0.1; that for A36U U100C was 2.44.
Take A36U U120A: the self-cleavage came out at 2.08.
The value for C34U A36U was 1.19.
On to A36U A82U, for which the self-cleavage came out at 0.31.
Regarding A36G G136U, the self-cleavage stood at 1.95.
The value for A36G G99A was 0.74; that for A36C U87A was 2.59.
As to A36C U87C, the self-cleavage is 1.04.
The value for C35U C71U was 0.22.
Consider A36U A94G, for which the self-cleavage was determined as 1.44.
The value for C34U A67U was 1.92.
Regarding A36G A135G, the self-cleavage came to 1.59.
Turning to C34A A82G, the self-cleavage is 0.76.
U37A C61U: the self-cleavage was 0.86.
The value for A36G A116U was 1; that for U37C U39A was 1.55; that for A36U A90G was 1.74.
The value for A36U C128A was 1.18; that for A36U A66U was 1.05.
For the variant U37A A51U, the self-cleavage was found to be 1.05.
For U37C A129G, the self-cleavage came to 0.32.
U37C U72C: the self-cleavage amounted to 0.26.
The value for U37C U72A was 0.51.
Take A36G C71U: the self-cleavage came out at 0.31.
As for U37C C107U, the self-cleavage stood at 0.02.
Take U37C G136U: the self-cleavage was determined as 1.97.
The value for A36C A135G was 2.33; that for A36G U133C was 2.18.
A36G U38C: the self-cleavage worked out at 1.19.
C35U A110G: the self-cleavage is 0.14.
On to A36C U103C, for which the self-cleavage turned out to be 1.44.
In the case of U38A A92G, the self-cleavage stood at 1.34.
In the case of U38A U102C, the self-cleavage came out at 1.99.
For A36G U43G, the self-cleavage amounted to 1.28.
For A36U A96G, the self-cleavage turned out to be 1.74.
The value for C34U A68G was 1.8; that for U37C A55G was 1.59; that for U37C C76U was 0.06.
Turning to U38A A56G, the self-cleavage is 0.94.
The value for U37C U122A was 1.4; that for U37C A82G was 0.69; that for A36C A62G was 2.
As to A36C A64G, the self-cleavage turned out to be 2.21.
U37C U100A: the self-cleavage was 0.52.
The value for U37C U100C was 1.67.
The value for U37C U108C was 0.01; that for U37C U108A was 0.04.
The value for A36U U97A was 2.69.
Take A36U U97C: the self-cleavage came out at 0.37.
Regarding A36G A66U, the self-cleavage stood at 2.4.
The value for U37C G41U was 1.04.
For U37C G137A, the self-cleavage is 1.64.
For the variant A36C G41U, the self-cleavage amounted to 1.47.
Consider U38A G83U, for which the self-cleavage was determined as 0.84.
The value for C35U A86G was 0.68; that for A36U U39C was 1.03; that for A36U A54G was 1.02.
On to A36U A54C, for which the self-cleavage came to 1.73.
The value for C34U A64G was 0.98; that for U37C G80A was 0.21; that for A36U U132C was 1.2.
